The values below come from patent US20230056815A1 (VIELA BIO, published 2023).

B2: human soluble FLT3L (recombinant huFLT3L) (ligand, UniProt P49771 27-184, looked up)
chain: TQDCSFQHSPISSDFAVKIRELSDYLLQDYPVTVASNLQDEELCGGLWRLVLAQRWMERLKTVAGSKMQGLLERVNTEIHFVTKCAFQPPPSCLRFVQTNISRLLQETSEQLVALKPWITRQNFSRCLELQCQPDSSTLPPPWSPRPLEATAPTAPQP
notes: extracellular domain; also called rhuFLT3L; hFLT3L

Some results are limits rather than exact numbers.

Experiment [1] has as its target B2. Kind of experiment: cell-based or functional assay.
Experiment [2] has as its target cynomolgus monkey soluble FLT3L (cynomolgus monkey). Kind of experiment: cell-based or functional assay.
The target in a further experiment is T1, mouse soluble FLT3L (mouse, UniProt P49772 27-189).
T1 sequence (looked up): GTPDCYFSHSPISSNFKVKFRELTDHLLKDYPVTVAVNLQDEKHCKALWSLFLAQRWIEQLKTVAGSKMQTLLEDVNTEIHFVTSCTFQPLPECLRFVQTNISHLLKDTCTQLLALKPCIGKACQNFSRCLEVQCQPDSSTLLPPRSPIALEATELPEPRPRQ
Briefly: cell-based or functional assay.

Experiment [3] has as its target B2. Kind of experiment: cell-based or functional assay. The source holds these as a separate data set.
For experiment [4], the target named is T2, cynomolgus monkey FLT3L on CHO cells (cynomolgus monkey).
T2 construct: whole, on cells; also called cell surface cyno FLT3L
Kind of experiment: flow cytometry on CHO cells expressing full-length cyno FLT3L, PE anti-hu IgG. The method, then:
(§1) Consistent with this, cell surface binding to human, cyno, and mouse FLT3L was evaluated by transfecting Chinese hamster ovary (CHO) cells with the respective full-length protein for each species. Candidate clones were incubated with FLT3L-expressing cell lines for 1 hour at 4° C. before being washed twice to remove unbound antibody. Cells were then incubated with PE-labeled goat anti-hu IgG secondary detection pAb to quantitate bound antibody which was measured by flow cytometric analysis of PE signal. The huFLT3-Fc construct, on a hu IgG backbone, was used as a positive control reagent for FLT3L expression as it cross reacts with cyno and mouse, in addition to human ligand.
(§2) As differences were apparent in the degree of receptor occupancy for each clone, both EC50 and max occupancy were noted (expressed as percent relative to FLT3-Fc) and taken into account in the final evaluation. Results are shown in Table 4 for human, cyno, and mouse FLT3L expressed in CHO cells.
(In general: A flow cytometer gives signals particle by particle.)

Experiment [5] deals with T3, human FLT3L on the cell surface (human, UniProt P49771 27-235).
T3 construct: whole, on cells; The assay field of each row says which cells carried it; also called cell-surface FLT3L; huFLT3L-expressing CHO cells
T3 sequence (looked up): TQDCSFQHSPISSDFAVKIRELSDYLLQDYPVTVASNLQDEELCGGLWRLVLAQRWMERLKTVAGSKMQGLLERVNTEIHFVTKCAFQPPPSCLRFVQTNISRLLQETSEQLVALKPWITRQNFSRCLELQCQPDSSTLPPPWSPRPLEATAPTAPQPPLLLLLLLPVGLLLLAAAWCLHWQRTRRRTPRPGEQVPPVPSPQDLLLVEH
Briefly: flow cytometry on CHO cells expressing full-length human FLT3L, PE anti-hu IgG. The method, then: as §1, §2

The target of another experiment is T4, mouse FLT3L on CHO cells (mouse, UniProt P49772 27-232).
T4 construct: whole, on cells; also called cell surface mouse FLT3L
T4 sequence (looked up): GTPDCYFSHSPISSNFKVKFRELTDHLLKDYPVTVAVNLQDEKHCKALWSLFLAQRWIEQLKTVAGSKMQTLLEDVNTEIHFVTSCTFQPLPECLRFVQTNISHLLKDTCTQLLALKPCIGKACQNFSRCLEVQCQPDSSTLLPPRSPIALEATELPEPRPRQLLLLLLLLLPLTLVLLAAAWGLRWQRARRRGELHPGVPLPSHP
Kind of experiment: flow cytometry on CHO cells expressing full-length mouse FLT3L, PE anti-hu IgG. The method, then: as §1, §2

The next experiment concerns the target T5, hFLT3 receptor (human, UniProt P36888 27-541, limits assumed).
T5 construct: The construct is not described
T5 sequence (looked up): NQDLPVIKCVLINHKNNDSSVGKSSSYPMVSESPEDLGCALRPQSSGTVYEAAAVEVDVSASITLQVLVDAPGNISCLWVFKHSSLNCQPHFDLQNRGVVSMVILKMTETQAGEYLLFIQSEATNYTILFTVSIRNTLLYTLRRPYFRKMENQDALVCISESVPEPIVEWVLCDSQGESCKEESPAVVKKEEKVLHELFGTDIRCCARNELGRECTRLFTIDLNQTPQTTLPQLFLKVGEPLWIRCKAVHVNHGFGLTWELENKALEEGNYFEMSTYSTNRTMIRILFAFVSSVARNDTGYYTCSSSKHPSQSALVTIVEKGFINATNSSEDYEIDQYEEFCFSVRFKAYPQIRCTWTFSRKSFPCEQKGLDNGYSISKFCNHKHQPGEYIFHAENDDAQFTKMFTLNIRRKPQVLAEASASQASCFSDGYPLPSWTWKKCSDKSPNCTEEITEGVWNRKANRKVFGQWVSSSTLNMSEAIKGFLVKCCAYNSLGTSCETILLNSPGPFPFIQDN
Kind of experiment: Biacore. (SPR reads the build-up and loss of mass on a sensor chip optically.)

The target in experiment [6] is T6, FLT3 on RS4;11 cells (human, UniProt P36888 27-993).
T6 sequence (looked up): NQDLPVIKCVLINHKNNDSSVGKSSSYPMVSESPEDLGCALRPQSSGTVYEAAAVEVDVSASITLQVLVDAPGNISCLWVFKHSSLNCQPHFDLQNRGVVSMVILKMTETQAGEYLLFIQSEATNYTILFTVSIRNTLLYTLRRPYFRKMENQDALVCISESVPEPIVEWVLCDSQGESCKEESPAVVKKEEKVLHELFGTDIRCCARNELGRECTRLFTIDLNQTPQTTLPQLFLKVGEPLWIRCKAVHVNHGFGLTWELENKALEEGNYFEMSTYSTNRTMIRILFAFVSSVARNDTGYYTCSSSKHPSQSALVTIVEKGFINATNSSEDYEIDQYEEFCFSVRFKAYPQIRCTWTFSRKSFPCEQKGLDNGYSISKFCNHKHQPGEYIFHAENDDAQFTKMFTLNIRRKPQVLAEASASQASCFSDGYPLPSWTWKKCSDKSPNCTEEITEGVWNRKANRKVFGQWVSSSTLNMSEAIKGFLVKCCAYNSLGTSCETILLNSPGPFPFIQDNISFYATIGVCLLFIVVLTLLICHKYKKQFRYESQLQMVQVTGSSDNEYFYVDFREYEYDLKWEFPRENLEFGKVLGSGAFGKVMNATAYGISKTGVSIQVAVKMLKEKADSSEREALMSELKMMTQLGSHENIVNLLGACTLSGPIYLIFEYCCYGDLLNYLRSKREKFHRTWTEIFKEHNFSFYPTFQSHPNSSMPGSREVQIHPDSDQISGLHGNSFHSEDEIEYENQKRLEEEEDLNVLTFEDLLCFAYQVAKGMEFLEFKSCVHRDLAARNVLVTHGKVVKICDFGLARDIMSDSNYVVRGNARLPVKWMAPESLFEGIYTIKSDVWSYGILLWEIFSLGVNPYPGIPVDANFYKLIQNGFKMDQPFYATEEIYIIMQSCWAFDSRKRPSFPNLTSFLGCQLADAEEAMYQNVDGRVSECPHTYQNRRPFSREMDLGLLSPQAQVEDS
Kind of experiment: cell-based or functional assay.

Experiment [7] deals with T6, FLT3 on RS4;11 cells. Kind of experiment: flow cytometry: biotinylated rhuFLT3L on RS4;11 cells, detected with BV421-streptavidin.
Experiment [8] concerns the target B2. Kind of experiment: Biacore.
For experiment [9], the target named is B2. Briefly: Biacore, Fab.
The target of experiment [10] is T7, cynomolgus monkey soluble FLT3L (cynomolgus monkey).
T7 construct: extracellular domain; also called cyno sFLT3L; cyno FLT3L
Kind of experiment: Biacore, Fab.

Experiment [11] has as its target B2. Briefly: Biacore, Fab. The source holds these as a separate data set.
Experiment [12] concerns the target T7, cynomolgus monkey soluble FLT3L. Briefly: Biacore, Fab. The source holds these as a separate data set.
The target of experiment [13] is B2. Briefly: Biacore, Fab, steady-state.
In experiment [14] the target is T7, cynomolgus monkey soluble FLT3L. Kind of experiment: Biacore, Fab, steady-state.
Experiment [15] has as its target B2. Kind of experiment: Biacore, Fab, kinetic (koff/kon).
Experiment [16] has as its target T7, cynomolgus monkey soluble FLT3L. Kind of experiment: Biacore, Fab, kinetic (koff/kon).

A word on the EC50: it is the concentration at which the effect is half-maximal. The Kd is the constant that tells how readily two partners part at equilibrium. The term koff denotes the rate constant with which the complex falls apart. Usually kon stands for a measure of how fast the partners come together. By EC50 (read off the curve) is commonly meant the midpoint of the concentration-response curve.

B1: Dyax3 antibody (IgG1 TM format) (antibody, V domains shown)
VH: EVQLLESGGGLVQPGGSLRLSCAASGFTFSMYEMRWVRQAPGKGLEWVSVIPSGGKTFYADSVKGRFTISRDNSKNTLYLQMNSLRAEDTAVYYCARYSRWFGQLGFYSHYAMDVWSQGTTVTVSS
VL: DIQMTQSPSSLSASVGDRVAITCRASQSIDTYLNWYQQKPGKAPKLLIYAASKLEDGVPSRFSGSGTGTDFTLTIRSLQPEDFASYFCQQSYSSPGITFGPGTKVEIK
notes: also called DTAX3
B1: the “IC50 (nM), inhibition of FLT3 downregulation on RS4;11 cells” value is 54.8 nM in experiment [1], 3070 nM in [2] and 1490 nM with mouse soluble FLT3L. In addition, the “IC50 (nM) against 0.476 nM FLT3L, ERK phosphorylation in CD133+ stem cells” value in [3] came to 2.4 nM. The “IC50 (nM) against 0.476 nM FLT3L, MEK phosphorylation in CD133+ stem cells” value in [3] was 93 nM. Further, the EC50 in experiment [4] came to 1.8 nM; in experiment [5] it was 0.27 nM; in the experiment with mouse FLT3L on CHO cells it was 0.39 nM. The “maximum occupancy (% relative to FLT3-Fc)” value is 35% in experiment [4], 33% in experiment [5] and 16% with mouse FLT3L on CHO cells.

On to B2, for which, in the experiment with hFLT3 receptor, the Kd came out at 22.3 nM, the koff was found to be 0.00812 s⁻¹ and the kon came out at 360000 M⁻¹ s⁻¹. For the same molecule, the “fold decrease in Allophycocyanin (APC) MFI, an indicator of FLT3 expression, on RS4;11 cells” value in the experiment with FLT3 on RS4;11 cells [6] was found to be 25 fold. In the experiment with FLT3 on RS4;11 cells [7], the “EC50 (read off the curve)” value is ~0.1 nM.

B3: CAT5D9 Fab (Fab, V domains shown)
VH: QVQLVQSGAEVKKPGSSVKVSCKISGGTFSSYALSWVRQAPGQGLEWMGGIIPVFRTASYAQKFQGRVTITVDESASTGYIELSSLKSEDTATYYCASNNYVWGSYRFWGQGTTVTVSS
VL: NFMLTQPHSVSESPGKTVTISCTRTSGNIAGYFVQWYQQRPGSSPTTVIYEDYQRPSGVPDRFSGSIDRSSNSASLTISGLKPDDEADYYCQSYDDTSQGVFGAGTKVTVL
notes: also called 5D9 parent
In the case of B3, the Kd in [8] worked out at 1160 nM; in [13] it was 1600 nM; in experiment [14], 1610 nM; in [15], 1160 nM; in experiment [16] it was 1160 nM. The koff in [8], in [11] and in experiment [12] was 0.0707 s⁻¹ in each case. Also, the kon was found to be 60000 M⁻¹ s⁻¹ in experiment [8], 61000 M⁻¹ s⁻¹ in experiment [11] and 61000 M⁻¹ s⁻¹ in experiment [12]. For the same molecule, the “fold KD against the remaining lead antibodies” value in experiment [9] and in experiment [10] was > 50 fold in each case.
